According to patent publication US20100143349A1 (Pfizer, published 2010):
Numbering of substitutions follows the chain as printed. Values joined by “and” are separate entries in the source; they are usually repeats but may differ in a detail not shown here. Identical values can stand only once.

B1: parental XT-M4 scFv (VH 2.0, VL 2.11), VL-VH format (scFv)
scFv: DIQMTQSPSSLSASVGDRVTITCRASQDVGIYVNWFQQKPGKAPRRLIYRATNLADGVPSRFSGSRSGTDFTLTISSLQPEDFATYYCLEFDEHPLTFGGGTKVEIKDGGGSGGGGSGGGGSSEVQLVESGGGLVQPGGSLRLSCAASGFTFNNYWMTWVRQAPGKGLEWVASIDNSGDNTYYPDSVKDRFTISRDNAKNSLYLQMNSLRAEDTAVYYCARGGDITTGFDYWGQGTLVTVSS
notes: also called M4WT
B2: S2R3A1_8G9 scFv (scFv)
scFv: B1 scFv with G139S, F229L
B3: S2R3A1_5H3 scFv (scFv)
scFv: B1 scFv with Y49D, Q126L
B4: S2R3A1_2E6 scFv (scFv)
scFv: B1 scFv with S122N, G132V, T227N, F229L
notes: also called 2E6 (c)
B5: S2R4A3_10H6 scFv (scFv)
scFv: B1 scFv with R18G, R24Q, D108N, F229L, V240E
notes: also called 10H6 (a)
B6: S1R5A1_3B3 scFv (scFv)
scFv: B1 scFv with I31F, F229L
B7: S2R4A4_1G6 scFv (scFv)
scFv: B1 scFv with I31F, T227N
B8: S2R4A3_10D8 scFv (scFv)
scFv: B1 scFv with R18K, I31F, G114N, G133E
notes: also called 10D8 (b)
B9: S1R5A1_10G10 scFv (scFv)
scFv: B1 scFv with K103R, T158S, D179E
B10: S2R4A3_5A3 scFv (scFv)
scFv: B1 scFv with R18I, G68S, Q205K, A220T, F229L
B11: parental XT-M4 scFv-Fc fusion (Fc fusion)
chain: B1 scFv
notes: Bivalent scFv-Fc made in COS cells; not shown: wild-type human IgG Fc (hinge and constant domains)
B12: 6G4 scFv-Fc fusion (Fc fusion)
chain: B1 scFv with T226L, T227D, G228S, F229L, D230H, Y231F
notes: Assayed separately; fold gain against the M4 value of the ribosome display set; not shown: wild-type human IgG Fc (hinge and constant domains)
B13: 6C2 scFv-Fc fusion (Fc fusion)
chain: B1 scFv with T226K, T227V, G228S, F229L, Y231R
notes: not shown: wild-type human IgG Fc (hinge and constant domains)
B14: 6B2 scFv-Fc fusion (Fc fusion)
chain: B1 scFv with T226R, T227V, F229L, Y231V
notes: Substitutions derived from the printed HCDR3; not shown: wild-type human IgG Fc (hinge and constant domains)
B15: 5A3 scFv-Fc fusion (Fc fusion)
chain: B1 scFv with R18I, G68S, Q205K, A220T, F229L
notes: as for B13
B16: 8G9 scFv-Fc fusion (Fc fusion)
chain: B1 scFv with G139S, F229L
notes: as for B13
B17: 3G5 scFv-Fc fusion (Fc fusion)
chain: B1 scFv with T226L, T227D, G228S, F229L, D230P
notes: as for B14
B18: 10G10 scFv-Fc fusion (Fc fusion)
chain: B1 scFv with K103R, T158S, D179E
notes: as for B13
B19: 6B6 scFv-Fc fusion (Fc fusion)
chain: B1 scFv with T226I, T227I, G228S, F229L, Y231W
notes: as for B14
B20: 6C3 scFv-Fc fusion (Fc fusion)
chain: B1 scFv with T227L, F229L, Y231V
notes: as for B13
B21: 10D8 scFv-Fc fusion (Fc fusion)
chain: B1 scFv with R18K, I31F, G114N, G133E
notes: also called 10D8 (b); not shown: wild-type human IgG Fc (hinge and constant domains)

biological target: T1, hRAGE-Fc (human, UniProt Q15109 23-342, biotin label in the selections and HTRF assays); experiment: HTRF competition, scFv vs labelled parental XT-M4 (competitor) on hRAGE
T1 construct: extracellular domain; also called biotin labeled hRAGE-Fc; Biotin-labeled RAGE-Fc; not shown: Fc part
T1 sequence (Q15109 23-342): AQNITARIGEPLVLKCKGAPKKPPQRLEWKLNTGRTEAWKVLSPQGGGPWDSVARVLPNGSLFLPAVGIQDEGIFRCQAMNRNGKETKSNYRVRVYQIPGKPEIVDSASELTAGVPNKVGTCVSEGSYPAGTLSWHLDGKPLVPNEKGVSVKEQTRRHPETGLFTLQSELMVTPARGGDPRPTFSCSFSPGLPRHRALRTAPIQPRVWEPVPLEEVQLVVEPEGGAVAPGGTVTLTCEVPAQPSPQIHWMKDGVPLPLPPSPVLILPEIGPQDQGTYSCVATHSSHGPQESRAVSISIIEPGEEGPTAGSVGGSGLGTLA
Description: (§1) Increases in binding to RAGE antigen were detected with the aid of a competition assay using parental XT-M4 antibody. Both phage display and ribosome display libraries were selected for affinity improved variants by incubating with biotin labeled hRAGE-Fc, recovering binding clones using streptavidin magnetic beads and washing away non binding variants. Sequential rounds of selection were carried on decreasing antigen concentrations to drive the preferential recovery of higher affinity variants. Clones recovered after selection were subsequently screening for improved binding to hRAGE-Fc using HTRF. This is an assay that measures the decrease in fluorescence upon binding of parental europium cryptate-labeled XT-M4 to RAGE in the presence of competing test scFv antibodies. In these assays, periplasmic preparations of scFv were prepared from bacterial cultures and added in increasing concentrations to a combination of parental antibody and antigen. The ability of the scFV to compete with parental XT-M4 antibody to bind to Biotin-labeled RAGE-Fc was determined. In the presence of avidin-XL665 complex labeled XT-M4 bound to biotinylated RAGE-FC was detected by Fluorescence. Increasing amounts of scFv that competed with the XT-M4 for binding to biotinylated-RAGE-Fc was detected as a decrease in fluorescence. A sequential process of screening was used to focus in on a smaller number of clones with the greatest competition in HTRF assay

Q: For B1, which IC50 is on record?
A: 33 nM

Q: For B2, which IC50 is on record?
A: 2.4 nM

Q: With B3 as the binder, how does the IC50 read?
A: 8.2 nM

Q: How did the IC50 turn out when B4 was run?
A: 1.9 nM

Q: How did the IC50 turn out when B5 was run?
A: 0.3 nM

Q: With B6 as the binder, how does the IC50 read?
A: 2.2 nM

Q: B7 was tested. Which IC50 did it give?
A: 1.2 nM

Q: Which IC50 does the source give for B8 here?
A: 2.6 nM

Q: B9 was tested. Which IC50 did it give?
A: 16.3 nM

Q: How did the IC50 turn out when B10 was run?
A: 3 nM

biological target: T2, human RAGE expressed on CHO cells (human, UniProt Q15109 23-404); experiment: cell ELISA on CHO-RAGE cells, A450 corrected for control CHO cells; phage display set
T2 construct: whole, on cells; also called CHO-RAGE cells; cell surface expressed human RAGE
T2 sequence (Q15109 23-404): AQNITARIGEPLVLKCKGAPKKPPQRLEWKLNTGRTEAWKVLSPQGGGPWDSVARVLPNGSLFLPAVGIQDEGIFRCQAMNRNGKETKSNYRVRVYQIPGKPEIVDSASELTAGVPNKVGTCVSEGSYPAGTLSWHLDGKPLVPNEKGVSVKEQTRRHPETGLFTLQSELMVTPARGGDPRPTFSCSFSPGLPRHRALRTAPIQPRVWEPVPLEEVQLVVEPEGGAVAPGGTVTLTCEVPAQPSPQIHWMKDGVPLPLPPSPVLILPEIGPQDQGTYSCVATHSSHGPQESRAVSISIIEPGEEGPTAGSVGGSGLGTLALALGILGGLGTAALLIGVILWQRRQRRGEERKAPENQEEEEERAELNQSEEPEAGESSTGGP
Description: (§2) Stably transfected Chinese Hamster Ovary (CHO) cells were engineered to express murine and human RAGE full length proteins. The murine and human RAGE cDNAs were cloned into the mammalian expression vector pSMED, linearized and transfected into CHO cells using lipofectin methods (Kaufman, R. J., 1990, Methods in Enzymology 185:537-66; Kaufman, R. J., 1990, Methods in Enzymology 185:487-511; Pittman, D. D. et al., 1993, Methods in Enzymology 222: 236). Cells were further selected in 20 nM methotrexate and cell extracts were harvested from individual clones and analyzed by SDS sodium dodecyl sulfate-polyacrylamide gel electrophoresis (SDS-PAGE) and Western blotting to confirm expression. […] Absorbance 450 nm values were corrected for the same clones binding to control CHO cells not expressing RAGE. EC50 values were calculated after curve fitting using GraphPad prism and are expressed in μg/ml.

Q: Which EC50 does the source give for B11 here?
A: 0.408 µg/mL

biological target: T2, human RAGE expressed on CHO cells; experiment: cell ELISA on CHO-RAGE cells, A450 corrected for control CHO cells; ribosome display set
Description: as §2

Q: For B11, which EC50 is on record?
A: 0.388 µg/mL

biological target: T1, hRAGE-Fc; experiment: HTRF competition, scFv vs labelled parental XT-M4 (competitor) on biotin hRAGE-Fc
Description: as §1

Q: How did the IC50 turn out when B1 was run?
A: 33.2 nM

biological target: T1, hRAGE-Fc; experiment: IC50 of parental M4 scFv-Fc (value of the ribosome display set) over IC50 of clone, HTRF competition

Q: B12 was tested. Which “Fold gain scFv-Fc (hRAGE)” value did it give?
A: 11.1 fold

biological target: T1, hRAGE-Fc; experiment: IC50 of parental M4 scFv over IC50 of clone, HTRF competition
Description: as §1

Q: B2 was tested. Which “Fold gain scFv (hRAGE)” value did it give?
A: 13.8 fold

Q: Which “Fold gain scFv (hRAGE)” value does the source give for B3 here?
A: 4 fold

Q: Which “Fold gain scFv (hRAGE)” value does the source give for B4 here?
A: 17.3 fold

Q: For B5, which “Fold gain scFv (hRAGE)” value is on record?
A: 110 fold

Q: How did the “Fold gain scFv (hRAGE)” value turn out when B6 was run?
A: 15 fold

Q: How did the “Fold gain scFv (hRAGE)” value turn out when B7 was run?
A: 21.5 fold

Q: For B8, which “Fold gain scFv (hRAGE)” value is on record?
A: 12.7 fold

Q: How did the “Fold gain scFv (hRAGE)” value turn out when B9 was run?
A: 2 fold

Q: How did the “Fold gain scFv (hRAGE)” value turn out when B10 was run?
A: 11 fold

biological target: T3, HU-RAGE-SA (human, UniProt Q15109 23-342); experiment: BIAcore, 10 nM scFv-Fc over directly immobilized HU-RAGE-SA, 1:1 fit
T3 construct: extracellular domain; Directly immobilized on a CM5 chip (~100 RU); also called hRAGE-SA; soluble human streptavidin-tagged RAGE; not shown: streptavidin tag (SA)
T3 sequence (Q15109 23-342): as the sequence (Q15109 23-342) above

Q: How did the koff turn out when B11 was run?
A: 0.0293 s⁻¹ and 0.0291 s⁻¹

Q: How did the koff turn out when B13 was run?
A: 0.00153 s⁻¹

Q: For B14, which koff is on record?
A: 0.000484 s⁻¹

Q: For B15, which koff is on record?
A: 0.00494 s⁻¹

Q: How did the koff turn out when B16 was run?
A: 0.00344 s⁻¹

Q: How did the koff turn out when B17 was run?
A: 0.00045 s⁻¹

Q: B12 was tested. Which koff did it give?
A: 0.00388 s⁻¹

Q: How did the koff turn out when B18 was run?
A: 0.105 s⁻¹

Q: Which koff does the source give for B19 here?
A: 0.00141 s⁻¹

Q: For B20, which koff is on record?
A: 0.000488 s⁻¹

Q: For B21, which koff is on record?
A: 0.000566 s⁻¹

biological target: T1, hRAGE-Fc; experiment: IC50 of parental M4 scFv-Fc over IC50 of clone, HTRF competition

Q: With B13 as the binder, how does the “Fold gain scFv-Fc (hRAGE)” value read?
A: 9.4 fold

Q: For B14, which “Fold gain scFv-Fc (hRAGE)” value is on record?
A: 8.2 fold

Q: B15 was tested. Which “Fold gain scFv-Fc (hRAGE)” value did it give?
A: 12.2 fold

Q: For B16, which “Fold gain scFv-Fc (hRAGE)” value is on record?
A: 5.1 fold

Q: For B17, which “Fold gain scFv-Fc (hRAGE)” value is on record?
A: 62.7 fold

Q: How did the “Fold gain scFv-Fc (hRAGE)” value turn out when B18 was run?
A: 5 fold

Q: With B19 as the binder, how does the “Fold gain scFv-Fc (hRAGE)” value read?
A: 7.6 fold

Q: For B20, which “Fold gain scFv-Fc (hRAGE)” value is on record?
A: 38.6 fold

Q: How did the “Fold gain scFv-Fc (hRAGE)” value turn out when B21 was run?
A: 8.8 fold

biological target: T1, hRAGE-Fc; experiment: HTRF competition, scFv vs labelled parental XT-M4 (competitor) on biotin hRAGE-Fc; remark: another data set of the same source
Description: as §1

Q: B1 was tested. Which IC50 did it give?
A: 33 nM

Q: Which IC50 does the source give for B2 here?
A: ~2.4 nM

Q: For B3, which IC50 is on record?
A: 8.2 nM

Q: B4 was tested. Which IC50 did it give?
A: 1.9 nM

Q: With B5 as the binder, how does the IC50 read?
A: 0.3 nM

Q: For B6, which IC50 is on record?
A: 2.2 nM

Q: How did the IC50 turn out when B7 was run?
A: 1.2 nM

Q: B8 was tested. Which IC50 did it give?
A: 2.6 nM

Q: Which IC50 does the source give for B9 here?
A: 16.3 nM

Q: How did the IC50 turn out when B10 was run?
A: ~3 nM

biological target: T3, HU-RAGE-SA; experiment: BIAcore kd against parental M4 scFv-Fc

Q: B13 was tested. Which “Fold change in kd” value did it give?
A: 19.2 fold

Q: Which “Fold change in kd” value does the source give for B14 here?
A: 61 fold

Q: With B15 as the binder, how does the “Fold change in kd” value read?
A: 5.9 fold

Q: B16 was tested. Which “Fold change in kd” value did it give?
A: 3.9 fold

Q: B17 was tested. Which “Fold change in kd” value did it give?
A: 65.1 fold

Q: For B12, which “Fold change in kd” value is on record?
A: 7.6 fold

Q: With B18 as the binder, how does the “Fold change in kd” value read?
A: 0.28 fold

Q: For B19, which “Fold change in kd” value is on record?
A: 20.8 fold

Q: Which “Fold change in kd” value does the source give for B20 here?
A: 60 fold

Q: Which “Fold change in kd” value does the source give for B21 here?
A: 51.8 fold

biological target: T2, human RAGE expressed on CHO cells; experiment: cell ELISA on CHO-RAGE cells, A450 corrected for control CHO cells
Description: as §2

Q: How did the EC50 turn out when B13 was run?
A: 0.0285 µg/mL

Q: For B14, which EC50 is on record?
A: 0.0816 µg/mL

Q: How did the EC50 turn out when B15 was run?
A: 0.096 µg/mL

Q: With B16 as the binder, how does the EC50 read?
A: 0.077 µg/mL

Q: Which EC50 does the source give for B17 here?
A: 0.0565 µg/mL

Q: With B12 as the binder, how does the EC50 read?
A: 0.172 µg/mL

Q: With B18 as the binder, how does the EC50 read?
A: 0.133 µg/mL

Q: How did the EC50 turn out when B19 was run?
A: 0.0285 µg/mL

Q: B20 was tested. Which EC50 did it give?
A: 0.155 µg/mL

Q: With B21 as the binder, how does the EC50 read?
A: 0.092 µg/mL
